This is an account of results in article PMC4837377.

One data set relates to NP. As to the kind of experiment: fluorescence anisotropy. To be noted: 5'-monophosphate.
The target of data set [1] is T1, PA;PB1 (in PA-PB1-PB2(1-116));PB2(1-116) (Influenza A virus A/Victoria/3/1975(H3N2);Influenza A virus A/Victoria/3/1975(H3N2);Influenza A virus A/Victoria/3/1975(H3N2)) (UniProt P03432+H9XIJ5). As to the kind of experiment: fluorescence anisotropy.
For data set [2], the target named is PA;PB1(1-686) (Influenza A virus A/Victoria/3/1975(H3N2);Influenza A virus A/Victoria/3/1975(H3N2)) (UniProt P03432). Briefly: fluorescence anisotropy. The following applies: 5'-monophosphate.
Sequence of PA;PB1(1-686) (Influenza A virus A/Victoria/3/1975(H3N2);Influenza A virus A/Victoria/3/1975(H3N2)) (P03432 whole entry, looked up): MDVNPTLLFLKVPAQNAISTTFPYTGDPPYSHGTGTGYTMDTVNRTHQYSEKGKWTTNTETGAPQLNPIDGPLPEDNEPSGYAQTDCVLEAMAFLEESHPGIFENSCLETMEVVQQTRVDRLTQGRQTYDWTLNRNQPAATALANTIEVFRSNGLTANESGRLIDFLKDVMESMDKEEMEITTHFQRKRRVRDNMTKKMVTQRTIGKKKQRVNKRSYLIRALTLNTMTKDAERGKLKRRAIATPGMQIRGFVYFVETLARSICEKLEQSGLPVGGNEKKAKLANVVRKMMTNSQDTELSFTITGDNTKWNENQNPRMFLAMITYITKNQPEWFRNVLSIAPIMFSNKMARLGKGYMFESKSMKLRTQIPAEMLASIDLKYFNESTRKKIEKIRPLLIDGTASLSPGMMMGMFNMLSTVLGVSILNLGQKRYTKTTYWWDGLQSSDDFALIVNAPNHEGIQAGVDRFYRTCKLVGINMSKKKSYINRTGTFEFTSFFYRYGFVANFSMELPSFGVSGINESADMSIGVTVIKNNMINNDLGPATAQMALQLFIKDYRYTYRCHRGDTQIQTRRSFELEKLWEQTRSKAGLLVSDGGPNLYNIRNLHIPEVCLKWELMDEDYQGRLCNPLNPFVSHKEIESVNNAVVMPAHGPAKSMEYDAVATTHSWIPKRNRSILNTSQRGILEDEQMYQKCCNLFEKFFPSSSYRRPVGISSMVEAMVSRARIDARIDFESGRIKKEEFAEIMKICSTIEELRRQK
The subject of data set [3] is PA;PB1(1-686);RanBP5 (Influenza A virus A/Victoria/3/1975(H3N2);Influenza A virus A/Victoria/3/1975(H3N2);Homo sapiens), P03432+O00410-3. Briefly: fluorescence anisotropy. The following applies: 5'-monophosphate.
For data set [4], the target named is T1, PA;PB1 (in PA-PB1-PB2(1-116));PB2(1-116) (Influenza A virus A/Victoria/3/1975(H3N2);Influenza A virus A/Victoria/3/1975(H3N2);Influenza A virus A/Victoria/3/1975(H3N2)). As to the kind of experiment: filter binding.
Data set [5] deals with PA;PB1(1-686) (Influenza A virus A/Victoria/3/1975(H3N2);Influenza A virus A/Victoria/3/1975(H3N2)) (UniProt P03432). Briefly: filter binding.

pKd: −log10 of the molar value. Where only a bound is given, the exact number is not on record here.

T1 sequence (P03432 whole entry, looked up, chain 2 of 2, other chains not shown): as the sequence (P03432 whole entry, looked up) above
Sequence of PA;PB1(1-686);RanBP5 (Influenza A virus A/Victoria/3/1975(H3N2);Influenza A virus A/Victoria/3/1975(H3N2);Homo sapiens), P03432+O00410-3 (O00410 whole entry, looked up, chain 1 of 2): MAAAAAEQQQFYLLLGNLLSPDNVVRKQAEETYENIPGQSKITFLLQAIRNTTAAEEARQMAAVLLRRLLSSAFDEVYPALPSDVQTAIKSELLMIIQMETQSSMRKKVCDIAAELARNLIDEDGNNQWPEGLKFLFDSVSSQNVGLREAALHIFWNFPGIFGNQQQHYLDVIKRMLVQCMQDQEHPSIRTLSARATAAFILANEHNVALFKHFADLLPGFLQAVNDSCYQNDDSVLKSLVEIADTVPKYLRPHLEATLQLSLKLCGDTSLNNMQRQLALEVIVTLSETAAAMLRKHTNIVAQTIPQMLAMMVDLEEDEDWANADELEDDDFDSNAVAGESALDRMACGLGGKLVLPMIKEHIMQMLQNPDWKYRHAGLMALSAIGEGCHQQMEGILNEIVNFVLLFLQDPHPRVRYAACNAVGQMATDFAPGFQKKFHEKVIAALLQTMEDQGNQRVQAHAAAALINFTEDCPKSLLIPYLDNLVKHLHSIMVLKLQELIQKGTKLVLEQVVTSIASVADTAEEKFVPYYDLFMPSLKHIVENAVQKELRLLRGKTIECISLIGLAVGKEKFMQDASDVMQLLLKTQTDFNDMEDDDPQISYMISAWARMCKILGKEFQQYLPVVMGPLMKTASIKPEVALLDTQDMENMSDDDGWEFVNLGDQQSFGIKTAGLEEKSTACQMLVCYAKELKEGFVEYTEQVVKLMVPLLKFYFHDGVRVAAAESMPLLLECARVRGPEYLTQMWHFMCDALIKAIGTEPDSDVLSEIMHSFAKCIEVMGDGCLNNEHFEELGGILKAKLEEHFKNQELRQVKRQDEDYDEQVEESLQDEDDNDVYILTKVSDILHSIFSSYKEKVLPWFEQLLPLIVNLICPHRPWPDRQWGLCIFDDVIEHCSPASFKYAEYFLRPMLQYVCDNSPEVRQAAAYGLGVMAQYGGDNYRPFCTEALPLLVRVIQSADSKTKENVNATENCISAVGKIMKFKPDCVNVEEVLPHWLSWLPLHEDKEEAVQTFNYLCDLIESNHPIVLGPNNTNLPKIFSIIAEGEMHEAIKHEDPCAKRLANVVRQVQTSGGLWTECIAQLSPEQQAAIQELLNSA
Sequence of PA;PB1(1-686);RanBP5 (Influenza A virus A/Victoria/3/1975(H3N2);Influenza A virus A/Victoria/3/1975(H3N2);Homo sapiens), P03432+O00410-3 (P03432 whole entry, looked up, chain 2 of 2): as the sequence (P03432 whole entry, looked up) above

With UCUCUCUCUCUCUCUCUC [polyUC], the pKd in the data set with NP is 7.54; in data set [1] (5'-monophosphate) it was less than 6.00.
As for AGUAGAAACAAGGGUA [5'-vRNAp], the values for the pKd in data set [1] (5'-monophosphate), in data set [2] and in data set [3] were 9.08, 9.06 and less than 6.00, respectively.
For AGUAGAAACAAGGGUA [5'-vRNAp (32P)], the results for the pKd in data set [4] and in data set [5] were 9.72 and 9.42, respectively.
Regarding AUACCCUGCUUUUGCU [3'-vRNAp (32P)], in data set [4], the pKd is 7.77.
In turn, AUACCCUGCUUUUGCU [3'-vRNAp] gave a pKd in data set [1] of 7.44.
